Assays:
[1] = biological target: T1, high molecular weight kininogen (HK) (UniProt P01042 19-644); assay: HK binding to recombinant gC1q-R deletion mutants (FIG. 7)
T1 sequence (looked up): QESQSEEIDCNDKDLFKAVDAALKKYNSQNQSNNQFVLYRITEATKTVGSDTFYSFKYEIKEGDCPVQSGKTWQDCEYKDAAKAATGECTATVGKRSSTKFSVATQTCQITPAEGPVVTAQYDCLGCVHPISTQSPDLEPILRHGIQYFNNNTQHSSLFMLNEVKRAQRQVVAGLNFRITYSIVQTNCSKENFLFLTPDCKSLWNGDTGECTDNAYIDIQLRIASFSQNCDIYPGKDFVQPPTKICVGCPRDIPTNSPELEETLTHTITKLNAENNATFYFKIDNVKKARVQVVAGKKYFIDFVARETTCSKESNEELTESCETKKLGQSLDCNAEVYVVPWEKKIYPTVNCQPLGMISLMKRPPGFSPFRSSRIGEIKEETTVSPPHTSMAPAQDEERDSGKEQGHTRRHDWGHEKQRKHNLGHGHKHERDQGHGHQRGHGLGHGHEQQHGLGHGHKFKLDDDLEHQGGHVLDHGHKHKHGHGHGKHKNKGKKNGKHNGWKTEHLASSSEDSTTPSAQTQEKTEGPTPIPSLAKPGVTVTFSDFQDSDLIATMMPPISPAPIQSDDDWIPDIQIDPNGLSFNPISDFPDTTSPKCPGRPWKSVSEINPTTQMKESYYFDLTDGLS

[2] = biological target: T1, high molecular weight kininogen (HK); assay: solid phase ELISA, peptide on the plate
Text: Several peptides were synthesized that correspond with the gC1q-R domains of very high negative charge and, which based on their location in the crystal structure on the solution-face, are hypothesized to interact with solution-phase ligands.

B1: gC1q-R deletion mutant lacking residues 204-218 (receptor, human, UniProt Q07021 74-282, looked up)
chain: LHTDGDKAFVDFLSDEIKEERKIQKHKTLPKMSGGWELELNGTEAKLVRKVAGEKITVTFNINNSIPPTFDGEEEPSQGQKVEEQEPELTSTPNFVVEVIKNDDGKKALVLDCHYPEDEVGQEDEAESDIWKDTNYTLNTDSLDWALYDHLMDFLADRGVDNTFADELVELSTALEHQEYITFLEDLKSFVKSQ
notes: also called mutant lacking these residues
[1]
  binding result: no binding

## EDEVGQEDEAESD (Synthetic peptide coated on ELISA wells) [gC1q-R peptide (amino acids 190-202)]
[2]
  binding result: binds
